Reference: publication PMC5018819 (Scientific Reports, 2016)

B1: PfEK (Plasmodium falciparum 3D7) (protein)
chain: EYQLREIDESEKEITQQRKKNSVTTKNFDNLSNSNSQITEMTNEQGVIPLREKDLTINVGDNRNLKVEEFMTNFISNVFENKNALFLYCKYVLLFYGKELLNENNVESLNFEIIKGGITNILVKVEDNIHQNKYLIRLYGPKTSEIINREREKLISNILCDKNISKKIYVFFPNGRIEEFKDGYALSREDIKNKDFQKEIAENLRILHDIQLDDTIYKKLQALQNIQGNRSSFLWSTLWKYFNTLKEERQKKYSFNPKAYILKLIDFDMLESIITEIQELCCKKNSPVVLCHCDLLSSNIIKTEGSSISFIDFEYSCPMERAYDIANHFNEYAGFNCEWDLTPNRSEEYHFIKHYLKTDDEQLINQLIDEIQPFYVCSHIVWGLWALLQGLHSVIDFDFINYGMTRLTAAFSVKFRSKL
B2: PfCK (Plasmodium falciparum 3D7) (protein)
chain: MESKICDPIGLDKNKFRKVEEENEENSKIVENGQMTYNDDLEMFTTIQLNQEIDIRKNPFPLHMINQKNDIPLCAQEFSKLTDPLYIKKICLEKVHDWSRCNEDDVCVNQILSGLTNQLFEVSIKEDTAIEYRITRRHVLFRIYGKDVDALYNPLSEFEVYKTMSKYRIAPLLLNTFDGGRIEEWLYGDPLSIDDLKNKSILVGIANVLGKFHTLSRKRHLPEHWDKTPCVFKMMDRWRLAVSNYKNLDKVTLDINKYIQESHKFLKFIKIYTQIENIANDIVFCHNDLQENNIMNTNKCLRLIDFEYSGYNFLSADIANFFIETTIDYSYNAYPFFIINKKNYISYESRILFVTTYLSKYLDDSTAASDQDIIDQFLEAIEVQALGLHLIWAFWSIIRGYQTKSYNEFDFFLYAKERLKMYDEQKQYLMSKNIIKDYDD
notes: made in house

Experiments:
[1] = substrate: NCCO; assay: kinetic analysis of recombinant enzyme (substrate saturation); format: biochemical, P. falciparum; conditions: Etn varied, ATP constant, pH 7.8
Experimental: (§1) A continuous spectrophotometric 96-well plate assay was established for CK and EK activity based on an assay described. […] The reaction was initiated by addition of enzyme or substrate, as appropriate, and the rate of reaction was monitored by following the decrease in absorbance at 341 nm for 10 min at room temperature using a Thermo Multiska spectrophotometer. Experiments were carried out to ensure that coupling enzymes were not rate-limiting under any of the conditions used and control experiments lacking substrates and/or enzyme were carried out to correct for any background rate.
(§2) One substrate was held constant at the concentration specified above while the second substrate was varied. Any ATPase activity was controlled for and subtracted from the rates (PfEK only). Curves were plotted and Km and Vmax values estimated using Grafit 5 (Erithacus Software Ltd).

[2] = substrate: Nc1ncnc2c1ncn2[C@@H]1O[C@H](COP(=O)(O)OP(=O)(O)OP(=O)(O)O)[C@@H](O)[C@H]1O; assay: as above; format: biochemical, P. falciparum; conditions: ATP varied, pH 7.8
Experimental: as §1, §2

[3] = substrate: C[N+](C)(C)CCO; assay: purified protein, by the assay type; conditions: other: PfCK, Cho varied, ATP constant; pH 7.8

Row | Protein | Km ([1]; other: PfEK) [µM] | Vmax ([1]; other: PfEK) [µmol/min/mg] | kcat ([1]; other: PfEK) [s⁻¹] | kcat/Km ([1]; other: PfEK) [M⁻¹ s⁻¹] | Km ([2]; other: PfEK) [µM] | Km [3] [µM] | Vmax [3] [µmol/min/mg] | kcat [3] [s⁻¹] | kcat/Km [3] [M⁻¹ s⁻¹] | Km ([1]; other: PfCK) [µM] | Vmax ([1]; other: PfCK) [µmol/min/mg] | kcat ([1]; other: PfCK) [s⁻¹] | kcat/Km ([1]; other: PfCK) [M⁻¹ s⁻¹] | Km ([2]; other: PfCK) [µM]
1 | B1 | 80 ± 20 | 0.03 | 0.025 | 310 | 70 ± 30 | – | – | – | – | – | – | – | – | –
2 | B2 | – | – | – | – | – | 210 ± 30 | 3.3 | 2.9 | 13800 | 3300 ± 300 | 1.7 | 1.5 | 450 | 130 ± 10
